Data on 11 molecules can be found in paper PMC11905881, “Incorporation of polymerizable linkers into aptamers for high-affinity nanoscale molecularly imprinted polymer hybrids: analysis of positional selectivity†”.

Data set [1] concerns the target trypsin (UniProt P00760). In words: SPR. The conditions noted are these: embedded in imprinted polymer nanoparticle, SPR: PBST (10 mM phosphate buffered saline, pH 7.4, 0.01% Tween 20), 25 °C, nanoparticles immobilized on carboxymethyl dextran Au chips, protein 4-64 nM, n = 3.
The target of data set [2] is lysozyme (UniProt P00698 19-147). In words: SPR; lysozyme-imprinted polymer hybrid; SPR: PBST (10 mM phosphate buffered saline, pH 7.4, 0.01% Tween 20), 25 °C; nanoparticles immobilized on carboxymethyl dextran Au chips, protein 4-64 nM; n = 3. Conditions: protein: commercial. In general terms: Surface plasmon resonance follows binding to a sensor surface in real time, without labels.
Sequence of lysozyme (P00698 19-147): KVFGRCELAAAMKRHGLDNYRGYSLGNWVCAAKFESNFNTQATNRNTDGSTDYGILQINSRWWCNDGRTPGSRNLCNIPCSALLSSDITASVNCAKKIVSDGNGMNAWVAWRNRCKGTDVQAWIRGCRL

Sequence of trypsin (P00760 24-246): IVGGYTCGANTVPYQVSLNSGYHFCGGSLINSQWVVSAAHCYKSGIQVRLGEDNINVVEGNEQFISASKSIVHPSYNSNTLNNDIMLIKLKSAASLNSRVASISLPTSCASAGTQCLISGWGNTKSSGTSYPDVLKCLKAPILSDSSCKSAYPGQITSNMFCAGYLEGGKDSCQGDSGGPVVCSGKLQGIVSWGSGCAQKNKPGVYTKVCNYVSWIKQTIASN

One may read the Kd as the equilibrium constant for the complex coming apart. Low readings indicate tighter binding, high ones weaker binding. In data set [1] (six carboxy-dT (ester or amide, polymerizable), throughout), “ATCTACGAATTCATCAGGGCTAAAGAGTGCAGAGTTACTTAG [AptaMIP-1 oligo]” yielded a dissociation constant Kd of 4.68 µM.

Consider “ATCTACGAATTCATCAGGGCTAAAGAGTGCAGAGTTACTTAG [AptaMIP-2 oligo]”, for which the equilibrium dissociation constant (Kd) in data set [1] (four carboxy-dT, evenly spaced, no central linker) was 2.33 µM. That is a single-digit micromolar value. In turn, “ATCTACGAATTCATCAGGGCTAAAGAGTGCAGAGTTACTTAG [AptaMIP-3 oligo]” displayed a Kd in data set [1] (three carboxy-dT, both ends and centre) of 9.75 µM. That is a single-digit micromolar value.

For the molecule “ATCTACGAATTCATCAGGGCTAAAGAGTGCAGAGTTACTTAG [AptaMIP-4 oligo]”, in data set [1] (three carboxy-dT near centre (9 bases free at 3', 14 at 5')), the Kd was found to be 9.87 µM. The molecule “ATCTACGAATTCATCAGGGCTAAAGAGTGCAGAGTTACTTAG [AptaMIP-5 oligo]” came in with a Kd in data set [1] (two carboxy-dT, one at each end (positions 1 and 6 of Fig. 1)) of 8.95 µM. That is a single-digit micromolar value. In the case of “ATCTACGAATTCATCAGGGCTAAAGAGTGCAGAGTTACTTAG [AptaMIP-6 oligo]”, the Kd in data set [1] (one carboxy-dT at 3' end) was 4.68 µM. In the case of “ATCTACGAATTCATCAGGGCTAAAGAGTGCAGAGTTACTTAG [AptaMIP-7 oligo]”, the Kd in data set [1] (one carboxy-dT at 5' end) worked out at 4.89 µM. In data set [1] (one central carboxy-dT), “ATCTACGAATTCATCAGGGCTAAAGAGTGCAGAGTTACTTAG [AptaMIP-8 oligo]” gave a Kd of 4.17 µM.

B1: AptaMIP-1 oligo (ssDNA)
DNA: ATCTACGAATTCATCAGGGCTAAAGAGTGCAGAGTTACTTAG
modifications: six carboxy-dT (ester or amide, polymerizable), throughout; embedded in imprinted polymer nanoparticle
As to B1, in data set [2], the Kd amounted to 0.00128 µM. This counts as single-digit nanomolar.

B2: AptaMIP-4 oligo (ssDNA)
DNA: ATCTACGAATTCATCAGGGCTAAAGAGTGCAGAGTTACTTAG
modifications: three carboxy-dT near centre (9 bases free at 3', 14 at 5'); embedded in imprinted polymer nanoparticle
B2 registered a Kd in data set [2] of 0.0427 µM. This Kd lies about 33-fold higher than the previous one.

B3: AptaMIP-3 oligo (ssDNA)
DNA: ATCTACGAATTCATCAGGGCTAAAGAGTGCAGAGTTACTTAG
modifications: three carboxy-dT, both ends and centre; embedded in imprinted polymer nanoparticle
In data set [2], B3 came in with a Kd of 0.0012 µM.
